In experiment [1] the target is CtpA as used in the gel filtration experiments (Pseudomonas aeruginosa). Description: SEC; separately purified CtpA (or CtpAΔC6) mixed with LbcA at molar ratios 6:1, 6:2, 6:3, 30 °C for 15 min in 20 mM Tris pH 7.5, 5 mM MgCl2, 100 mM KCl; Superdex 200 increase; peaks analysed by SDS-PAGE.
In experiment [2] the target is 6xHis-CtpA(ΔN37, ΔC6) (Pseudomonas aeruginosa). Nature of the experiment: ITC; 250 μM LbcA in the syringe titrated into 9 μM CtpA hexamer (32 μM for CtpAΔC6 dimer) in the cell; 25 °C; 20 mM Tris pH 7.5, 5 mM MgCl2, 100 mM KCl; one-site fit. In general terms: Isothermal titration calorimetry measures the heat released or taken up as one component is titrated into another.

For experiment [3], the target named is 6xHis-CtpA(ΔN37, S302A), purified alone (Pseudomonas aeruginosa). Described as above.
Experiment [4] deals with 6xHis-CtpA(ΔN37), wild type (Pseudomonas aeruginosa). The experiment is described as above.
For experiment [5], the target named is CtpA(ΔN37, S302A), co-expressed with LbcA(ΔN31), 6xHis tag removed (Pseudomonas aeruginosa). Nature of the experiment: cryo-EM structure; co-expressed CtpA(ΔN37, S302A)-LbcA(ΔN31) complex purified by HiTrap Ni, HiTrap Q and Superose 6 Increase (20 mM Tris pH 7.5, 5 mM MgCl2, 100 mM KCl, 1 mM DTT), 0.8 mg/ml; single particle analysis; molar ratio judged by band intensity in stained SDS-PAGE gels.

Experiment [6] concerns the target 6xHis-CtpA(ΔN37, ΔC6) (Pseudomonas aeruginosa). Description: SEC; separately purified CtpA (or CtpAΔC6) mixed with LbcA at molar ratios 6:1, 6:2, 6:3, 30 °C for 15 min in 20 mM Tris pH 7.5, 5 mM MgCl2, 100 mM KCl; Superdex 200 increase; peaks analysed by SDS-PAGE. A general note: SEC sorts molecules by how far they enter the pores of the column.
Experiment [7] shares this target. Nature of the experiment: cryo-EM 2D class averages of a cross-linked mixture; CtpAΔC6 mixed with LbcA at 6:4 molar ratio, 30 °C for 15 min in 20 mM HEPES pH 7.5, 5 mM MgCl2, 100 mM KCl, cross-linked with 1 mM BS(PEG)9 on ice overnight; 2D classification.
The target is the same in experiment [8]. Description: SEC; CtpA or CtpAΔC6 alone incubated at 30 °C for 15 min in 20 mM Tris pH 7.5, 5 mM MgCl2, 100 mM KCl; Superdex 200 increase.
For experiment [9], the target named is 6xHis-CtpA(ΔN37, S302A), purified alone (Pseudomonas aeruginosa). Description: negative staining EM; CtpA(S302A) 10 μg/ml on carbon grids prepared at room temperature, uranium formate stain, 2D classification.
For experiment [10], the target named is CtpA as used in the gel filtration experiments (Pseudomonas aeruginosa). Nature of the experiment: SEC; CtpA or CtpAΔC6 alone incubated at 30 °C for 15 min in 20 mM Tris pH 7.5, 5 mM MgCl2, 100 mM KCl; Superdex 200 increase.
The target is the same in experiment [11]. Nature of the experiment: not stated; CtpA alone on ice at 4 °C (Appendix Fig. S12a).
The target is the same in experiment [12]. Nature of the experiment: SEC; CtpA or CtpAΔC6 alone incubated at 30 °C for 15 min in 20 mM Tris pH 7.5, 5 mM MgCl2, 100 mM KCl; Superdex 200 increase. The source holds these as a separate data set.

For the substance “LbcA(ΔN31) with C-terminal 6xHis tag, purified alone (natural protein)”, in experiment [1], the stoichiometry N (CtpA:LbcA (molar ratio)) turned out to be 2. The Kd (as a rule, the concentration at which binding is half-saturated) in experiment [2] turned out to be 850 nM; in experiment [3], 760 nM; in experiment [4], 920 nM. The substance also yielded a stoichiometry N (LbcA per CtpA dimer) in experiment [3] of 1.
For “LbcA(ΔN31), co-expressed with CtpA(ΔN37, S302A) (natural protein)”, the stoichiometry N (CtpA:LbcA (molar ratio)) in experiment [5] turned out to be 2.
6xHis-CtpA(ΔN37, ΔC6) (enzyme): the stoichiometry N in experiment [6], in experiment [7] and in experiment [8] was 2 in each case.
For “6xHis-CtpA(ΔN37, S302A), purified alone (enzyme)”, the stoichiometry N – broadly, the number of molecules, sites or subunits per partner or assembly – in [9] amounted to 2.
As to “CtpA as used in the gel filtration experiments (printed only as CtpA) (enzyme)”, the stoichiometry N in experiment [10] stood at 6; in [1], 6; in experiment [11], 6; in [12], 2.
With “CtpA(ΔN37, S302A), co-expressed with LbcA(ΔN31), 6xHis tag removed (enzyme)”, the stoichiometry N in [5] is 6.

The values are drawn from PMC11021448.
